{"source": "patent US6362319B1", "about": "“Glial cell line-derived neurotrophic factor” (Amgen Inc., priority 1991, dated 2002)", "molecules": {"B1": {"name": "GDNF prior to refolding: E. coli-expressed human GDNF, exposed to 2-mercaptoethanol and purified by S- or Q-Sepharose, before refolding (protein, UniProt P39905 78-211, looked up)", "Glial cell line-derived …": "SPDKQMAVLPRRERNRQAAAANPENSRGKGRRGQRGKNRGCVLTAIHLNVTDLGLGYETKEELIFRYCSGSCDAAETTYDKILKNLSRNRRLVSDKVGQACCRPIAFDDDLSFLDDNLVYHILRKHSAKRCGCI", "modifications": "unrefolded, E. coli-expressed"}, "B2": {"name": "5. RP-HPLC: GDNF peak 3 after second reverse-phase HPLC (protein, UniProt Q07731 78-211, looked up)", "Glial cell line-derived …": "B1 Glial cell line-derived … with M6A, V8A, N22S, D73E, T78M, N89S, V93T, I105V, N117S", "modifications": "purification fraction", "notes": "GDNF peak 3 after second reverse-phase HPLC"}, "B3": {"name": "4. Preparative SDS-PAGE: GDNF eluted from preparative non-reducing SDS-PAGE (protein, UniProt Q07731 78-211, looked up)", "Glial cell line-derived …": "B1 Glial cell line-derived … with M6A, V8A, N22S, D73E, T78M, N89S, V93T, I105V, N117S", "modifications": "purification fraction"}, "B4": {"name": "Q-Sepharose chromatographed material: unrefolded sulfonylated human GDNF extract partially purified on Q-Sepharose (protein, UniProt P39905 78-211, looked up)", "Glial cell line-derived …": "B1 Glial cell line-derived …", "modifications": "unrefolded, sulfonylated"}, "B5": {"name": "3. RP-HPLC: GDNF after first reverse-phase HPLC (protein, UniProt Q07731 78-211, looked up)", "Glial cell line-derived …": "B1 Glial cell line-derived … with M6A, V8A, N22S, D73E, T78M, N89S, V93T, I105V, N117S", "modifications": "purification fraction"}, "B6": {"name": "S-Sepharose chromatographed material: unrefolded human GDNF TU extract partially purified on S-Sepharose (protein, UniProt P39905 78-211, looked up)", "Glial cell line-derived …": "B1 Glial cell line-derived …", "modifications": "unrefolded, partially purified"}, "B7": {"name": "refolded GDNF: recombinant mature human GDNF expressed in E. coli and refolded (protein)", "chain": "SNMPEDYPDQFDDVMDFIQATIKRLKRSPDKQMAVLPRRERNRQAAAANPENSRGKGRRGQRGKNRGCVLTAIHLNVTDLGLGYETKEELIFRYCSGSCDAAETTYDKILKNLSRNRRLVTDKVGQACCRPIAF"}}, "key": {"[1]": {"system": "sympathetic neurons from chick embryo sympathetic chain ganglia", "assay": "Neuronal survival assay (MTT), sympathetic chain ganglia", "type": "cell-based", "conditions": "for fold lower than refolded rhGDNF in sympathetic neuron survival bioassay / apparent ED50 in the sympathetic neuron survival bioassay: prior to refolding; for apparent ED50 in the sympathetic neuron survival bioassay: exposed to 30 mM 2-mercaptoethanol", "description": "Cultures of primary check embryo ciliary ganglia and sympathetic chain ganglia were prepared as previously described (Collins 1978 Develop. Biol. 65:50; Manthorpe et al. 1986 Develop. Brain Res. 25:191). Briefly, ciliary or sympathetic ganglia were removed from fertile, pathogen free chicken eggs that had been incubated for 8 and 10 days, respectively, at 38° C. in a humidified atmosphere. The ganglia were chemically dissociated by exposure first to Hands' Balanced Salt Solution without divalent cations, containing 10 mM HEPES buffer pH 7.2 for 10 min at 37° C., and then by exposure to a solution of 0.125% bactotrypsin 1:250 (Difco, Detroit, Mich.) in Hanks' Balanced Salt Solution modified as above for 12 min at 37° C. Trypsinization was stopped by addition of fetal calf serum to a final concentration of 10%.\nAfter this treatment, ganglia were transferred to a solution consisting of Dulbecco's high glucose Modified Eagle Medium without bicarbonate containing 10% fetal calf serum and 10 mM HEPES, pH 7.2 and were mechanially dissociated by trituration approximately 10 times through a glass Pasteur pipet whose opening had been fire polished and constricted to a diameter such that it took 2 seconds to fill the pipet.\nThe dissociated ganglia were then plated in culture medium (Dulbecco's Modified Eagle Medium supplemented with 10% fetal calf serum, 4 mM glutamine, 60 mg/L penicillin-G, 25 mM HEPES, pH 7.2) in 100 mm diameter tissue culture dishes (40 dissociated ganglia per dish) for three hours. […] After three hours, the nonadherent nerve cells were collection by centrifugation, resuspended in culture medium, and plated in 50 μl per well onto half area 96 well microtiter tissue culture plates at a density of 1500 nerve cells per well. The microtiter wells had been previously exposed to a 1 mg/ml solution of poly-L-ornithine in 10 mM sodium borate, pH 8.4 overnight at 4° C., washed in distilled water and air dried.\nTen μl of a serial dilution of the sample to be assayed for neurotrophic activity was added to each well and the dishes were incubated for 20 hours at 37° C. in a humidified atmosphere containing 7.5% CO2. After 18 hours for ciliary and 40 hours for sympathetic ganglia, 15 μl per well of a 1.5 mg/ml solution of the tetrasolium dye MTT in Dulbecco's high glucose Modified Eagle Medium without bicarbonate containing 10 mM HEPES, pH 7.2, was added and the cultures placed in the 37° C. incubator for 4 hours. Then, 75 μl of a solution of 6.7 ml of 12 M HCl per liter of isopropanol was added and the contents of each well triturated 30 times to break open the cells and suspend the dye. The absorbance of 570 nm was determined relative to a 690 nm reference for each well using an automatic microtiter plate reader (Dynatech, Chantilly, Va.). The absorbance of wells which had not received any neurotrophic agent (negative controls) was substracted from the absorbance of sample-containing wells. The resulting absorbance is proportional to the number of living cells in each well, defined as those nerve cells capable of reducing the dye. The number of trophic units of neurotrophic activity was defined as the reciprocal of the dilution that gave 50% of maximal survival of nerve cells. Specific activity was determined by dividing the number of trophic units by the amount of protein present in the sample."}, "[2]": {"system": "dopaminergic neurons in rat embryo (E16) mesencephalic cell cultures", "assay": "Bioassay for dopaminergic neurotrophic activity: 3H-dopamine uptake in dissociated mesencephalic cell cultures", "type": "cell-based", "conditions": "for SP. ACT (specific activity, dopamine uptake trophic units per protein): TU = reciprocal of dilution giving 50% of maximal stimulation of 3H-DA uptake; for FOLD (specific activity relative to B49 conditioned medium): purification fold over CM; for BIOACTIVITY: total trophic units at purification step; for ED50 for increasing dopamine uptake: rat embryo (E16) mesencephalic culture", "description": "The dopaminergic activity of the GDNF is used to facilitate the purification process. […] Briefly, cultures of dissociated mesencephalic cells are prepared, either in serum rich or serum free environments. Samples to be tested for dopaminergic activity are desalted and serially added to the cell cultures and the dishes are incubated for 6 days at 37° C. in a humidified atmosphere containing 6.5% CO2. The cultures, in the presence of the testing material, are then incubated at 37° C. with tritiated dopamine (^3H-DA). The dopamine uptake is halted, the cells washed, and the dopamine uptake analyzed by scintillation counting of retained tritium in the cultures.\nCulture conditions: Dissociated mesencephalic cell cultures were prepared as previously described (Friedman and Mytilineou 1987 Neurosci. Lett. 79:65-72), with minor modifications. Briefly, rostral mesencephalic tegmentum from brains of Sprague-Dawley rat embryos, at the 16th day of gestation, were dissected under the microscope in sterile conditions, collected in Ca^2+- and Mg^2+-free Dulbecco's phosphate buffered saline (Gibco, Gaithersburg, Md.) and dissociated mechanically by mild trituration. The cells were plated in 100 μl per well onto 16-mm diameter tissue culture wells (Falcon, Lincoln Park, N.J., 24-well plate) containing 400 μl medium to give a density of 2.5-3.5×10^5 cells per well. The culture wells had been previously exposed to 0.1 mg/ml solution of poly L-ornithine in 10 mM sodium borate, pH 8.4, for 3 hours at 37° C., washed 3 times in milli-Q H2O and once in Earle's balanced salt solution (Gibco). The feeding medium (10/10) consisted of minimal essential medium (MEM, Gibco) supplemented with glucose (33 mM), sodium bicarbonate (24.5 mM), glutamine (2 mM), HEPES (15 mM), penicillin G (5 U/ml), streptomycin (5 μg/ml), 10% heat-inactivated fetal calf serum (Gibco) and 10% heat inactivated horse serum (Gibco). The cultures were kept at 37° C. in a water-saturated atmosphere containing 6.5% CO2. After 3 hours, when most of the cells had adhered to the bottom of the well, the medium was replaced with 500 μl of fresh medium. At this time, a serial dilution of the sample to be assayed for GDNF activity was added to each well in duplicate and the plates were incubated in the 37° C. incubator. After a week, the cultures were treated for 24 hours with fluorodeoxyuridine (13 μg/ml) and uridine (33 μg/ml) to prevent excessive glial proliferation and subsequently fed with the above medium without fetal calf serum. The feeding medium was changed weekly.\nAlternatively, chemically defined serum-free medium was used in which serum was replaced by a mixture of proteins; hormones and salts. The defined medium (DM) consisted of a mixture of MEM and F12 nutrient mixture (both Gibco, 1:1; vol/vol) with glucose (33 mM), glutamine (2 mM) NaHCO3 (24.5 mM), HEPES (15 mM), supplemented with transferrin (100 μg/ml), insulin (25 μg/ml), putrescine (60 μM), progesterone (20 nM), sodium selenite (30 nM), penicillin G (5 U/ml) and streptomycin (5 μg/ml). The osmolarity of the DM was adjusted to 325 by the addition of milli-Q H2O. (110-125 ml H2O/l). […] All assays reached in the following examples were done in serum-containing medium.\nThe functional status of the dopaminergic neurons may be assayed in these cultures by measuring dopamine uptake through specific “scavenger” transporters in the dopaminergic neurons and by counting the number of neurons positive for the dopamine synthetic enzyme tyrosine hydroxylase using immunohistochemistry."}}, "note": "Where a chain is given by its changes, count along the chain named."}
{"molecule": "B1", "values": [{"measurement": "bioactivity in sympathetic neuron survival bioassay", "setting": "[1]", "result": "greatly reduced bioactivity"}, {"measurement": "bioactivity in dopamine uptake assay", "setting": "[2]", "result": "no detectable bioactivity"}]}
{"molecule": "B2", "values": [{"measurement": "SP. ACT (specific activity, dopamine uptake trophic units per protein)", "setting": "[2]", "result": "17,000 TU/μg"}, {"measurement": "FOLD (specific activity relative to B49 conditioned medium)", "setting": "[2]", "result": "34,000"}, {"measurement": "BIOACTIVITY", "setting": "[2]", "result": 5, "unit": "TU × 10^−3"}]}
{"molecule": "B3", "values": [{"measurement": "BIOACTIVITY", "setting": "[2]", "result": 7, "unit": "TU × 10^−3"}]}
{"molecule": "B4", "values": [{"measurement": "fold lower than refolded rhGDNF in sympathetic neuron survival bioassay", "setting": "[1]", "result": "about 100 fold"}, {"measurement": "apparent ED50 in the sympathetic neuron survival bioassay", "setting": "[1]", "result": "about 3 μg/ml"}]}
{"molecule": "B5", "values": [{"measurement": "SP. ACT (specific activity, dopamine uptake trophic units per protein)", "setting": "[2]", "result": "12,000 TU/μg"}, {"measurement": "FOLD (specific activity relative to B49 conditioned medium)", "setting": "[2]", "result": "24,000"}, {"measurement": "BIOACTIVITY", "setting": "[2]", "result": 12, "unit": "TU × 10^−3"}]}
{"molecule": "B6", "values": [{"measurement": "fold lower than refolded rhGDNF in sympathetic neuron survival bioassay", "setting": "[1]", "result": "about 333 fold"}, {"measurement": "apparent ED50 in the sympathetic neuron survival bioassay", "setting": "[1]", "result": "about 1 μg/ml"}]}
{"molecule": "B7", "values": [{"measurement": "bioactivity in sympathetic neuron survival bioassay", "setting": "[1]", "result": "fully active"}, {"measurement": "ED50 for sympathetic neuron survival", "setting": "[1]; chick embryo (E10) sympathetic ganglia", "result": "about 3 ng/ml"}, {"measurement": "bioactivity in dopamine uptake assay", "setting": "[2]", "result": "fully active"}, {"measurement": "ED50 for increasing dopamine uptake", "setting": "[2]", "result": "about 3 pg/ml"}, {"measurement": "ED50 for increasing dopamine uptake", "setting": "[2]; listed as rhGDNF", "result": "about 30 pg/ml"}]}
